One block for each molecule: values may come before it.
Key:
[1] = target: PKD1 kinase domain construct, unphosphorylated (PKD1^KD 0P), wild type (human) (UniProt Q15139); experiment: SEC-MALS; 60 uL of purified protein at 2 mg/mL on an S200 10/300 column, room temperature, 20 mM HEPES pH 7.4, 150 mM KCl, 1 mM EDTA, 1 mM TCEP, 1% glycerol (Fig. 1H)
[2] = target: PKD1 kinase domain construct, unphosphorylated (PKD1^KD 0P), wild type (human) (UniProt Q15139); experiment: SEC; analytical size exclusion chromatography of purified proteins (Fig. 1C); elution volumes calibrated to monomer and dimer masses by SEC-MALS
[3] = target: PKD1 ubiquitin-like dimerization domain (PKD1^ULD) (human); experiment: as above
[4] = target: ULD-PKD1^KD chimera with (Gly)10 linker (human)
[5] = target: ULD-PKD1^KD chimera with (Gly)5 linker (human)
[6] = target: the molecule itself; experiment: SEC; analytical size exclusion chromatography of purified proteins (Fig. 1C); elution volumes calibrated to monomer and dimer masses by SEC-MALS

Molecule: PKD1 kinase domain construct, unphosphorylated (PKD1^KD 0P), wild type (from UniProt Q15139 570-890) (domain or fragment)
- stoichiometry N [1]: 2
- stoichiometry N [2]: 2

B1: PKD1^KD S738E (domain or fragment, human, UniProt Q15139 570-890, looked up)
chain: QIQENVDISTVYQIFPDEVLGSGQFGIVYGGKHRKTGRDVAIKIIDKLRFPTKQESQLRNEVAILQNLHHPGVVNLECMFETPERVFVVMEKLHGDMLEMILSSEKGRLPEHITKFLITQILVALRHLHFKNIVHCDLKPENVLLASADPFPQVKLCDFGFARIIGEKEFRRSVVGTPAYLAPEVLRNKGYNRSLDMWSVGVIIYVSLSGTFPFNEDEDIHDQIQNAAFMYPPNPWKEISHEAIDLINNLLQVKMRKRYSVDKTLSHPWLQDYQTWLDLRELECKIGERYITHESDDLRWEKYAGEQGLQYPTHLINPSAS
notes: Protein kinase D1 (PKD1), human, kinase domain construct, residues 570 to 890; also called single glutamate substitution of S738; source: recombinant, purified to homogeneity
- binding result [6]: binds

B2: PKD1^KD 2A (S738A/S742A) (domain or fragment, human, UniProt Q15139 570-890, looked up)
chain: QIQENVDISTVYQIFPDEVLGSGQFGIVYGGKHRKTGRDVAIKIIDKLRFPTKQESQLRNEVAILQNLHHPGVVNLECMFETPERVFVVMEKLHGDMLEMILSSEKGRLPEHITKFLITQILVALRHLHFKNIVHCDLKPENVLLASADPFPQVKLCDFGFARIIGEKAFRRAVVGTPAYLAPEVLRNKGYNRSLDMWSVGVIIYVSLSGTFPFNEDEDIHDQIQNAAFMYPPNPWKEISHEAIDLINNLLQVKMRKRYSVDKTLSHPWLQDYQTWLDLRELECKIGERYITHESDDLRWEKYAGEQGLQYPTHLINPSAS
notes: the sites are S738 and S742; source: recombinant, purified to homogeneity
- stoichiometry N [6]: 2

B3: PKD1^KD S742E (domain or fragment, human, UniProt Q15139 570-890, looked up)
chain: QIQENVDISTVYQIFPDEVLGSGQFGIVYGGKHRKTGRDVAIKIIDKLRFPTKQESQLRNEVAILQNLHHPGVVNLECMFETPERVFVVMEKLHGDMLEMILSSEKGRLPEHITKFLITQILVALRHLHFKNIVHCDLKPENVLLASADPFPQVKLCDFGFARIIGEKSFRREVVGTPAYLAPEVLRNKGYNRSLDMWSVGVIIYVSLSGTFPFNEDEDIHDQIQNAAFMYPPNPWKEISHEAIDLINNLLQVKMRKRYSVDKTLSHPWLQDYQTWLDLRELECKIGERYITHESDDLRWEKYAGEQGLQYPTHLINPSAS
notes: Protein kinase D1 (PKD1), human, kinase domain construct, residues 570 to 890; also called single glutamate substitution of S742; source: recombinant, purified to homogeneity
- binding result [6]: binds

Second part, the molecule after the results:

- stoichiometry N [3]: 2
Molecule: PKD1 ubiquitin-like dimerization domain (PKD1^ULD) (domain or fragment)

- initial catalytic rate of Syntide-2 phosphorylation at 50 nM, against PKD1^KD alone [4]: 5 fold
Molecule: ULD-PKD1^KD chimera with (Gly)10 linker

- initial catalytic rate of Syntide-2 phosphorylation at 50 nM, against PKD1^KD alone [5]: 5 fold
Molecule: ULD-PKD1^KD chimera with (Gly)5 linker

Reference: paper PMC9962925, “PKD autoinhibition in trans regulates activation loop autophosphorylation in cis” (Proceedings of the National Academy of Sciences of the …, 2023)
